B1: TRIM35 (parent)
chain: PTCPVCKDRASPADLRTNHTLNNL
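Note: lentivirally expressed fusions sorted by FACS into six bins by GFP to DsRed ratio, PSI derived from sequencing read proportions per bin multiplied by bin number.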

Variants of B1 are the subject of the data set. Kind of data set: protein stability index of a GFP-peptide fusion (GPS, HEK-293T) (PSI 1-6); higher = more stable. The settings on record: c terminus: a fixed tail appended.
PTCPVCKDRASPADSRTNHTLNNL [L15S]: the protein stability index was 3.57.
For the variant PTCPVCKDWASPADLRTNHTLNNL [R9W], the protein stability index stood at 3.11.
For the variant PTCPVCKDYASPADLRTNHTLNNL [R9Y], the protein stability index amounted to 3.08.
For PTCPVCKDRASPADLRINHTLNNL [T17I] the value was 3.07.
In the case of PTCPVCKDRASPADLRGNHTLNNL [T17G], the protein stability index turned out to be 3.18.
For PTCPVCKDRASPADLRMNHTLNNL [T17M] the value was 2.67; for PTCPVCKDRASPADLRRNHTLNNL [T17R], 3.1; for PTCPVCKDRASPADLRFNHTLNNL [T17F], 2.52.
For PTCPVCKDRASPADLRWNHTLNNL [T17W] the value was 2.35.
On to PTCPVCKDRASPADLRVNHTLNNL [T17V], for which the protein stability index came out at 2.6.
With PTCPVCKDRASPADLRKNHTLNNL [T17K] the figure was 3.02.
With PTCPVCKDRASPADLRDNHTLNNL [T17D] the figure was 3.36.
For PTCPVCKDRASPADLRLNHTLNNL [T17L] the value was 2.58; for PTCPVCKDRASPADLRNNHTLNNL [T17N], 3.09.
Take PTCPVCKDRASPADLRPNHTLNNL [T17P]: the protein stability index was determined as 3.34.
For PTCPVCKDRASPADLRSNHTLNNL [T17S] the value was 3.13; for PTCPVCKDRASPADLRANHTLNNL [T17A], 2.75.
For PTCPVCKDRASPADLRENHTLNNL [T17E] the value was 3.29; for PTCPVCKDRASPADLRHNHTLNNL [T17H], 3.66; for PTCPVCKDRASPADLRQNHTLNNL [T17Q], 3.28.
For PTCPVCKDRASPADLRYNHTLNNL [T17Y] the value was 2.6.
Consider PTCPVCKDRASPADLRCNHTLNNL [T17C], for which the protein stability index is 4.21.
With PTCPVCKDRASAADLRTNHTLNNL [P12A] the figure was 2.46.
With PTCPVCKDRASDADLRTNHTLNNL [P12D] the figure was 3.5; with PTCPVCKDRASRADLRTNHTLNNL [P12R], 2.36; with PTCPVCKDRASVADLRTNHTLNNL [P12V], 2.85.
With PTCPVCKDRASMADLRTNHTLNNL [P12M] the figure was 2.35.
As for PTCPVCKDRASNADLRTNHTLNNL [P12N], the protein stability index stood at 2.89.
For PTCPVCKDRASHADLRTNHTLNNL [P12H] the value was 2.61; for PTCPVCKDRASWADLRTNHTLNNL [P12W], 2.03.
For PTCPVCKDRASYADLRTNHTLNNL [P12Y] the value was 2.69.
In the case of PTCPVCKDRASKADLRTNHTLNNL [P12K], the protein stability index was 2.83.
On to PTCPVCKDRASQADLRTNHTLNNL [P12Q], for which the protein stability index was found to be 3.11.
With PTCPVCKDRASLADLRTNHTLNNL [P12L] the figure was 2.1.
Turning to PTCPVCKDRASTADLRTNHTLNNL [P12T], the protein stability index stood at 2.96.
For PTCPVCKDRASIADLRTNHTLNNL [P12I] the value was 2.47; for PTCPVCKDRASCADLRTNHTLNNL [P12C], 2.58.
With PTCPVCKDRASFADLRTNHTLNNL [P12F] the figure was 2.52; with PTCPVCKDRASGADLRTNHTLNNL [P12G], 2.9; with PTCPVCKDRASSADLRTNHTLNNL [P12S], 2.95.
For the variant PTCPVCKDRASEADLRTNHTLNNL [P12E], the protein stability index is 3.38.
With PTCPVCKDRASPADLSTNHTLNNL [R16S] the figure was 3.54.
With PTCPVCKDRASPADLCTNHTLNNL [R16C] the figure was 3.89.
Turning to PTCPVCKDRASPADLKTNHTLNNL [R16K], the protein stability index is 2.7.
As for PTCPVCKDRASPADLATNHTLNNL [R16A], the protein stability index was 3.34.
With PTCPVCKDRASPADLMTNHTLNNL [R16M] the figure was 2.72.
With PTCPVCKDRASPADLITNHTLNNL [R16I] the figure was 2.33; with PTCPVCKDRASPADLHTNHTLNNL [R16H], 3.17; with PTCPVCKDRASPADLETNHTLNNL [R16E], 4.09.
With PTCPVCKDRASPADLPTNHTLNNL [R16P] the figure was 3.11; with PTCPVCKDRASPADLGTNHTLNNL [R16G], 2.63.
Regarding PTCPVCKDRASPADLDTNHTLNNL [R16D], the protein stability index was found to be 3.91.
With PTCPVCKDRASPADLWTNHTLNNL [R16W] the figure was 2.01; with PTCPVCKDRASPADLFTNHTLNNL [R16F], 2.42.
With PTCPVCKDRASPADLQTNHTLNNL [R16Q] the figure was 3.39.
For PTCPVCKDRASPADLNTNHTLNNL [R16N] the value was 3.32; for PTCPVCKDRASPADLLTNHTLNNL [R16L], 3.04; for PTCPVCKDRASPADLTTNHTLNNL [R16T], 2.95.
On to PTCPVCKDRASPADLYTNHTLNNL [R16Y], for which the protein stability index worked out at 2.42.
PTCPVCKDRASPADLVTNHTLNNL [R16V]: the protein stability index was 3.07.
With PTCPVCKDRASPCDLRTNHTLNNL [A13C] the figure was 3.69; with PTCPVCKDRASPSDLRTNHTLNNL [A13S], 2.87; with PTCPVCKDRASPHDLRTNHTLNNL [A13H], 3.1.
With PTCPVCKDRASPPDLRTNHTLNNL [A13P] the figure was 3.29; with PTCPVCKDRASPQDLRTNHTLNNL [A13Q], 2.55.
With PTCPVCKDRASPYDLRTNHTLNNL [A13Y] the figure was 2.59; with PTCPVCKDRASPMDLRTNHTLNNL [A13M], 2.58; with PTCPVCKDRASPEDLRTNHTLNNL [A13E], 3.86.
For the variant PTCPVCKDRASPRDLRTNHTLNNL [A13R], the protein stability index worked out at 3.2.
With PTCPVCKDRASPFDLRTNHTLNNL [A13F] the figure was 2.26.
For PTCPVCKDRASPTDLRTNHTLNNL [A13T], the protein stability index is 2.75.
For PTCPVCKDRASPVDLRTNHTLNNL [A13V] the value was 2.62; for PTCPVCKDRASPLDLRTNHTLNNL [A13L], 2.31; for PTCPVCKDRASPNDLRTNHTLNNL [A13N], 3.27.
For PTCPVCKDRASPDDLRTNHTLNNL [A13D] the value was 3.13; for PTCPVCKDRASPGDLRTNHTLNNL [A13G], 3.23; for PTCPVCKDRASPWDLRTNHTLNNL [A13W], 1.81.
For PTCPVCKDRASPIDLRTNHTLNNL [A13I] the value was 2.53.
Turning to PTCPVCKDRASPKDLRTNHTLNNL [A13K], the protein stability index was 3.65.
For PTCPVCKDRASPADLRTNPTLNNL [H19P] the value was 3.19; for PTCPVCKDRASPADLRTNKTLNNL [H19K], 3.21; for PTCPVCKDRASPADLRTNCTLNNL [H19C], 2.95.
For PTCPVCKDRASPADLRTNFTLNNL [H19F] the value was 2.4; for PTCPVCKDRASPADLRTNQTLNNL [H19Q], 3.28.
For PTCPVCKDRASPADLRTNGTLNNL [H19G] the value was 3.33.
Turning to PTCPVCKDRASPADLRTNDTLNNL [H19D], the protein stability index is 3.61.
As to PTCPVCKDRASPADLRTNITLNNL [H19I], the protein stability index was determined as 2.5.
With PTCPVCKDRASPADLRTNATLNNL [H19A] the figure was 2.86; with PTCPVCKDRASPADLRTNLTLNNL [H19L], 3.02.
As to PTCPVCKDRASPADLRTNRTLNNL [H19R], the protein stability index turned out to be 3.14.
As for PTCPVCKDRASPADLRTNNTLNNL [H19N], the protein stability index worked out at 3.09.
With PTCPVCKDRASPADLRTNMTLNNL [H19M] the figure was 3.09.
Regarding PTCPVCKDRASPADLRTNSTLNNL [H19S], the protein stability index is 3.09.
For PTCPVCKDRASPADLRTNETLNNL [H19E] the value was 3.79.

Values taken from the supplement of paper PMC10567573.
